Legend:
2F5-specific peptide = test: ELISA on peptide MPER (659-671), antibody titrated
[1] = target: HIV-1 Env of isolate COT6 (wild-type) (HIV-1); test: cell-based or functional assay
[2] = target: HIV-1 Env of isolate COT6, mutant D674E (HIV-1); test: cell-based or functional assay
[3] = target: HIV-1 Env of isolate COT6, mutant D674T (HIV-1); test: cell-based or functional assay

Substance | EC50 (read off the curve) (2F5-specific peptide) [ng/mL] | Fold increase in IC50 (wild-type COT6, the reference) [1] [fold] | Fold increase in IC50 relative to wild-type COT6 [2] [fold] | Fold increase in IC50 relative to wild-type COT6 [3] [fold]
2F5 (antibody) | 6 | – | – | –
10E8 (antibody) | – | 1 | 17.5 | 36

Source: US20240124560A1
